From publication PMC3439924 (Nucleic Acids Research, 2012) come the findings set out here.

Data set [1] has as its target T1, RNase T (Escherichia coli, UniProt P30014 1-215).
T1 sequence: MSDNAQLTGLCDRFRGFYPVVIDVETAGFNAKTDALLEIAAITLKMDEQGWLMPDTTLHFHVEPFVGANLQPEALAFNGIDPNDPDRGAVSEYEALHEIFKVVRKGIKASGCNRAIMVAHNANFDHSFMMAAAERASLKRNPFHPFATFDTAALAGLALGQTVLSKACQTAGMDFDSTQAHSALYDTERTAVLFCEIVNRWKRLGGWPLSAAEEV
Description: X-ray crystallography.

Data set [2] has as its target T1, RNase T. The experiment in a line: X-ray crystallography. The source holds these as a separate data set.
Data set [3] addresses T2, RNase T E92G (Escherichia coli, UniProt P30014 1-215, E92G).
T2 sequence: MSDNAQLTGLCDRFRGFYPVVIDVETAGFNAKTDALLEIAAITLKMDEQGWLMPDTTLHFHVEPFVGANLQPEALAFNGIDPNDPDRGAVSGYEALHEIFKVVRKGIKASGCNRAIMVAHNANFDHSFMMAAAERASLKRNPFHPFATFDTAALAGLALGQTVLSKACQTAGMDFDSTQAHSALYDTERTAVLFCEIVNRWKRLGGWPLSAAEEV
Description: X-ray crystallography.

Data set [4] deals with T2, RNase T E92G. The experiment in a line: X-ray crystallography. The source holds these as a separate data set.
The data set “crystal structure” concerns the molecule itself. The experiment in a line: crystal structure.

Like-named read-outs stand apart in the source and are kept apart here.

As to TTACAAC (ssDNA) [ssDNA 3'-end AAC], the binding result in the data set with RNase T [1] was “binds”.
Consider TTATAAA (ssDNA) [ssDNA 3'-end AAA], for which the binding result with RNase T [2] is on record as “binds”.
Regarding GGCCCTCTTTAGGGCCTT (structured_DNA) [stem-loop DNA, 2-nt 3'-overhang], the binding result with RNase T E92G [3] is reported as “binds”.
For the molecule TTACAAT (ssDNA) [ssDNA 3'-end AAT], the binding result with RNase T E92G [4] is given as “binds”.
The same measure, in the same setting: next, GCTTA (ssDNA) [ssDNA 3'-end TTA]: “binds”.
As for TTACACC (ssDNA) [ssDNA 3'-end ACC], in the data set with RNase T [1], the binding result was “binds”.

B1: RNase T E92G mutant (E. coli) (enzyme, UniProt P30014 1-215, looked up)
chain: MSDNAQLTGLCDRFRGFYPVVIDVETAGFNAKTDALLEIAAITLKMDEQGWLMPDTTLHFHVEPFVGANLQPEALAFNGIDPNDPDRGAVSGYEALHEIFKVVRKGIKASGCNRAIMVAHNANFDHSFMMAAAERASLKRNPFHPFATFDTAALAGLALGQTVLSKACQTAGMDFDSTQAHSALYDTERTAVLFCEIVNRWKRLGGWPLSAAEEV
Take B1: the binding result in the data set “crystal structure” was “binds”.

B2: RNase T (wild-type, E. coli) (enzyme, UniProt P30014 1-215, looked up)
chain: MSDNAQLTGLCDRFRGFYPVVIDVETAGFNAKTDALLEIAAITLKMDEQGWLMPDTTLHFHVEPFVGANLQPEALAFNGIDPNDPDRGAVSEYEALHEIFKVVRKGIKASGCNRAIMVAHNANFDHSFMMAAAERASLKRNPFHPFATFDTAALAGLALGQTVLSKACQTAGMDFDSTQAHSALYDTERTAVLFCEIVNRWKRLGGWPLSAAEEV
As for B2, in “crystal structure”, the binding result was “binds”.
